Assay results: US20260241035A1, “FUNCTIONAL NUCLEIC ACID MOLECULE AND METHOD” (THE UNIVERSITY COURT OF THE UNIVERSITY OF EDINBURGH, priority 2022, published 2026)

B1: CSE075: clustered SOX dimer motif enhancer, SEQ ID NO: 49 (nucleic acid)
DNA: ATAAGCCCTTTAAATTAAATCTTTATGCAGATTCTATTTTATACTCCAAACTTTTCATGGAGCCTTGTGTAATTCTGATGTGTAAACCAACAAACAGAGAGGCTCTGTGTATGGAGTAGCTGGTTTGGATACCAGCTGGCTTGGCTGTGCGCCTTTCTAATGGTAATGAAGTCACACAGCTGCTAGGACAATCAGCTGGAGTTCAGATTGTCACTAGCTAAATGGATATCCATTGACTAGCTTCTTATCCGGACTCATTAAAGTTTAGTATTGACAAATAGTGGCTGGAGGTTTACAACTAAGAGGCATGTAGAAATGAACTTGTTGACTATTTTTTCCCTATAGCTTTTGCTTTGTGATTCACAGAATGTCATTCATC
B2: ID3547: enhancer fragment, SEQ ID NO: 13 (nucleic acid)
DNA: CGTTCCCCCTTAACAAAAGCCACCTCCTCCCTCCTGAAAGGCACCATTGGTCACCAAAACAAGTCCCCTTTGTCCTCCACCGCAGCTGGAGCCTGGGCCTTCCATCTCCTGGGGGCCAATAAAACCCCAGATCAGCCAATCCTCCCTCCCTGGCTCTGTCA
B3: CSE074: clustered SOX dimer motif enhancer, SEQ ID NO: 51 (nucleic acid)
DNA: ATACATTTTAGCACCAAACACAATTTAATAACAGGGCACAGAGGCCGCAAAGCCTCCTGATTCTGTTCCATTACTAATTTATCAGGGGCTGAAAGCAACCAAACTTAGGATCCCAGGCAGACAATGGAGCCTTTGAGGGGCAAGGGAAGCATCATTTAAAAGGAAAGCATTACCATTCTAAAATAATGGCAAAGCACATGAACTGAGTGCTCTGAAAGAGAGCACTACAAAAAAGGTATTCTCAGCTTAAATGCCCCAAACACAAAAGCTTTTAGTTGGGACTTAGACGGGAAAAAGAAAATAGCTCCCAATAAATTGGTTTTACCAGTATCCTTTTGTGTGTGCTGGTGCCAAGGGGGCGAGGGTACAGGCAAAGCGTGATTTTCCAAAACCTAGCTGAATTATGTTTCTTCTTTAGAACAAAACCCAACATTTTGCTAATGAGGATAAAGACAGTAAAACTGATATTCCTGTGCTATTACTAACTTGG
B4: CSE031: clustered SOX dimer motif enhancer, SEQ ID NO: 52 (nucleic acid)
DNA: CAGAGGAGAGAGGAGGTCATTTGGGACCATTTACTCATGCGAGAGTCACTGCCCCATGCTAAGATTTCCCCTAAAAATAAAATGATAAGATAATAACTCATAATGCTCTCCCCAAATCAGTACCACACAGACCCCCCTCTTCTGTTTGCTCAGACCCCCGCTCTCCAGCACAAAGTCTTTATTGGTCTCCCTGCAGGGGTGAAAATAAAGGGGGTTTTGTTCTTCTCCTCCCCCTCCCCCCTCGAAGGGCTGAGTGAGTTTATCTGACACTGCAGCAGTCTTTGTAAACTGAGTGTCCCAGGATAAACGCTCCCTTAAGAGTCGCTTGGCCTGGGACAGAGGGACCCTCTCCAGAGGAGAATGGGGAGCTTGTTCCAATGGTCTTTTAATATGGGGGGCGGGGTGTCACCAAGGACAGGCCTCCAGCACACTCTCACAGAAGGGTCTCTGTCCTGAGGCTACAGTGGAGGGAATTCTTAAAGACACAGATGCTGAAAAGGGGGAAGGAATTTTTTTTTCCCCTAAGGGGAGGGGAGGGAGGTTAGGGCGGGAAGGAGAAGGGGGAGTGGCGAGGACTCCTCATTCCCCAGAACAATTCCAGTTACAACAAGGCGTCTCTAT
B5: CSE054: clustered SOX dimer motif enhancer, SEQ ID NO: 50 (nucleic acid)
DNA: GCCAACAACTCATATAGTGGAGGCTTGAGCACACCATGCTTATTCCCAGAGTTCCAATGCTCTGCTTTTGAACCATTACCATGCCTTTCAGCAGCACTGTCAACAGAGCTCAGAGAAGGTCTTGAACTCCAGAGAATGAATGAGATATGCCAAATGAAGCATAATTACTTTATTGACGTCATTCAGCTTTCAACTCACATTTAATGAGAAAGCTTCTACTGCTTGAAACAGTGGGCCATTTGTAGCACATTATGCAAATGATAAGACTAATCTTTTGCATTATACATAAGAGCTGCTTATTGTGCATTAACTAATTTATCTGACTAGGAAGGGGCTATGAATGCTGATTTTTATTAAGCTCTTCATTAAGTGAAAATGTAGGCATGGCAAGTGCATAT
B6: CSE006: clustered SOX dimer motif enhancer, SEQ ID NO: 53 (nucleic acid)
DNA: AGGAAGAAGCATGCTGGGTCATTTTTGCCTTGTTTCTAGCTGCATGAATTGAAAAGCCAGGCCCAGGTTCAATGCATCATTCTTGAAGCAGTGAACAAAATCCCTCTTTGTTCCCCAGTGAAACTTATCTCTGAAGAGCTGCACTACTTCCTGTGAGATATAGCCCTGCAGATGTGTCGTGGGAGACCCGCCCGGCTGCACTGCCTTCCATAAAAGTGCAAGAATGGGCACTTTGTACTGCTGGACTGAAAATGACACTCACTCTTCTGATCCCCACTGGGGTTACCAAGTGGGCAAAACTTCCTGCTTAGAGGAGGGGTCATAGACAGCAGGGGGAGTGTGTGATTTTGTTTTGTTCCTTTGTGAATTTGTTTAGCTATTTATAGAGCTAAAGGAGAAAGCAAACGGGCACAATGTAGCACAGTGTTTTTCAAAGTGTATTCCATGGAACCCTTTCGTGGGTTGCAGACCCCAGGGGTGGAGGCAGAGGATGGGGTGGTGACAGCAGCAGGTGCTGTCCAGGGCCTTCTGTCT
B7: ID0876: enhancer fragment, SEQ ID NO: 8 (nucleic acid)
DNA: GAGCAGGCAGTCATTTGGTTCCCTTCTCTGAATGCATTGGCTCTGATCCACGGCGCCTCAGGAAGTGAAAGGGAGCAGGCAGTGAGGCCAAGCCATGAATGTTGGGCCCTTTTCTTAGAAAACAAAGGGTTCACTTTAGGCTAGGAGGAAACATCCGGGG
B8: CSE061: clustered SOX dimer motif enhancer, SEQ ID NO: 48 (nucleic acid)
DNA: GAACAGCACTTAAATATTAATAGCATCACTGGGAAAACACGACAGCTATTTCCCTGTTTTCTGCAGCTCAATGAAGAGTTGTTCAGTGCAGACCCCAGTGCTCTTGCCTCATGAATGGACGTGATTGTGGGGACATCATCTCCTACTAAGGCAAAACGTGACACTGAGAACAAAGGCTGGTTTTTAGCCTGATGTGATGAGCTCACCCCAGTGCCCATGTGGGGACTTTGAAGCTCGTCCAGGTGCCAGTTTTCTGTGTATATGACATTCTTGGTTGGGGAGGGTGTGGACTGGGCAGCAGGCTTT
B9: ID2339: enhancer fragment, SEQ ID NO: 9 (nucleic acid)
DNA: GTCGGCGGAACTGAGTCTCCTTTGTGGAGCCCCTCATTTGCATGATAAACCCCGGGGACAAAGTGTGTTCTTGTTACTTGGACTGTTTCTTGGAAACTGCTGCTACCTGGAGCGAGTGAACACAGGGCAAGTATTCTCGCCCACAGCAACGTGTCATTGA
B10: ID0663: enhancer fragment, SEQ ID NO: 11 (nucleic acid)
DNA: ATAAATTCCGATTAGCCAAGGAAGCTCTGAGTCTAAATACCAGCAAAGCTCAGCCCCTGCAAGTGGGGACGAATTATTTGAAAGGTCATCCTAGAGACACTGAACAAAGGGCCTCTAGCAGCT
modifications: listed as DNA, chemistry not given here
B11: ID2706: enhancer fragment, SEQ ID NO: 12 (nucleic acid)
DNA: CCAATGCCAAAGCAGTTTACATTTTACAGATGCCATGGCAACCGTCAGGAAGTTACCCTGTATGGTCTAAGAGGGGGAGGAACCCTCAGTTCCGGGAATTGCCCGCCCCTTTCCCGGAAACTCATGAATAATCCACCC
B12: ID1737: enhancer fragment, SEQ ID NO: 10 (nucleic acid)
DNA: CAACGTTTTTGGCAGATGCAGCTCTTTCTGAACAGTAAGTCATTGTTGAGTGACATGAATAGGACGAGAGCTACAGAAAATGAAGGTTTCAAAAGATTGTCTAAAACAAAAGTCCTTTCAGTCCCGTATTCAGAGTT

Tested on: GSC7 cells
Experiment: Nano-Glo Dual-Luciferase Reporter (Nanoglo DLR) assay of enhancer activity, fold change to mCMV
Type: cell-based, human
Conditions: expression fold change of the individual enhancer compared to mCMV
Source text: We chose an arrayed library format, with 160 bp enhancer fragments individually cloned into separate plasmids and arrayed in 96 well plates. These 160 bp were synthesized as a single pool of oligos, then randomly cloned into the plasmid and isolated. 20 bp×2 were needed for PCR amplification of the pool and so a library of 200 bp fragments was synthesized (Twist Biosciences). To meet our oligo synthesis strategy, ChIP-seq peaks expressed by GSCs were merged into a single oligo. This oligonucleotide pool was PCR-amplified (using limited cycles to reduce bias and ‘jackpot’ products meaning products which are easier to amplify will overtake the oligonucleotide pool) and cloned into the expression vector by an efficient Golden Gate reaction. 4579 individual plasmids were then randomly picked, isolated and plated as an arrayed plasmid DNA library on 96 well plates (×48). The bacterial colony picking and production of plasmid minipreps were supported by the Edinburgh Genome Foundry (S. Rosser). This library was then screened using the optimised Nanoglo DLR assay (Nano-Glo Dual-Luciferase Reporter Assay, Promega) in 384 well format. Each plate was transiently transfected together with PGK-FFLuc in a 1:10 ratio into GSC7 cells. 2 days later a Nanoglo DLR assay was performed and assayed on a plate reader.
Cells were seeded in 384 well plates using a multidrop and transfected the following day using the CyBio Felix. Two days later the experiment was terminated with a Nanoglo DLR assay and all hits with a fold change to mCMV greater than 10 were Sanger sequenced and mapped back to the genome.
Cells were seeded at the required density. The following day the transfection was carried out. For this the Plus reagent and Lipofectamine LTX (Life Technologies, 15338030) were each diluted in half the volume of Opti-MEM I Reduced-Serum Medium (further referred to as Optimem) (Life Technologies, 31985062). Following this step, the Plus reagent/Optimem premix was added to all DNA samples followed by the Lipofectamine LTX/Optimem premix. The transfection mix was incubated for 5 min at room temperature and then carefully dropped on the cells. Generally, no media change was carried out. Cells were analysed two days following transfection.
This assay consists of two steps. The transfection was carried out using a normalisation plasmid PGK-Firefly-Luciferase (Promega, E5011) that was transfected in a 1/10 ratio with the plasmid of interest. First, the Firefly Luciferase activity is measured which allows to normalise to transfection efficiency. In a second step, the activity of Nanoluc is determined which is the readout of the plasmid of interest. Cells were washed 3× with PBS and 20 μl was left in the 96 well plate after the final wash (25 μl in 384 well). Oneglo buffer was added and the plate was shaken for 5 min at 480 rpm to allow cell lysis. 20 μl cell lysate in 96 well format or 25 μl cell lysate in 384 well format was then transferred into the corresponding opaque white plate and luminescence was measured at for 0.1 s per well using the Ensight Multimode Plate Reader. For the following Nanoluc reaction in a 96 well format 2 μl cell lysate was transferred into an opaque white plate containing 40 μl PBS, and 20 μl Stopglo buffer, supplemented with substrate, was added to each well. In a 384 well format 20 μl Stopglo buffer containing substrate were added on top of the undiluted cell lysate. The plate was shaken again for 5 min at 480 rpm to quench the firefly luciferase reaction and ensure good mixing. Nanoluc activity was measured for 0.1 s per well, again using Ensight Multimode Plate Reader.
Data obtained by the Nanoluc reaction was normalised to Firefly reaction to account for well-to-well variability of transfection efficiency. Normalised data were used to calculate the fold change to the empty vector control mCMV.

Row | Molecule | Fold change (Median)
1 | B1 | 58.1 fold
2 | B2 | 53.2 fold
3 | B3 | 250.6 fold
4 | B4 | 249.3 fold
5 | B5 | 65.7 fold
6 | B6 | 524.3 fold
7 | B7 | 91.1 fold
8 | B8 | 58.3 fold
9 | B9 | 79.6 fold
10 | B10 | 59.1 fold
11 | B11 | 57.2 fold
12 | B12 | 77.1 fold
